Source: patent publication US20150086555A1

Assays:
Details in all cases: remark: other sources report otherwise
[1] = biological target: recombinant soluble homotrimeric HA of A/common magpie/Hong Kong/5052/07 (H5N1) (Influenza A virus A/common magpie/Hong Kong/5052/2007(H5N1)); assay: HA microarray, BCC supernatant
[2] = biological target: recombinant soluble homotrimeric HA, A/common magpie/Hong Kong/5052/07 H5N1 (Influenza A virus A/common magpie/Hong Kong/5052/2007(H5N1)); assay: microarray, transfection SN IgG, trimeric HA
[3] = biological target: recombinant homotrimeric HA A/common magpie/Hong Kong/5052/07 H5N1 (Influenza A virus A/common magpie/Hong Kong/5052/2007(H5N1)); assay: protein microarray, purified IgG, trimeric HA

B1: TCN-521 (3280_D18) (antibody, V domains shown)
VH: EVQLVQSGGGLVQPGGSLRLACVVSGFTVTSNYITWVRQAPGKGLEWVSVIYSHGRAYYSASVNGRFTISRHTSKNTVYLEMNSLRPEDTAVYYCAGGGLVGGYDEYFFDYWGQGTLATVSS
VL: ETVLTQSPGTLSLTPGERATLSCRVGQSVSGSHLAWYQQKPGQAPRLLIYGASSRATGIPDRFGGSVSGTDFTLTISRLEPEDSAVYYCQQYGDSRYTFGQGTKLEIK
B1 showed a Trimeric HA Binding: RLU [1] of 13500 RLU.

B2: TCN-550 (5096_F06) (antibody, V domains shown)
VH: QVQLQESGPGLVKPSETLSLTCTVSGASINSHYWSWIRQPPGKGLEWIGYVYYSGSTTYNPSLKSRVTLSVDTSKNQFSLNLSSVTAADTAFYYCARHPYDVLTGSGDWFDPWGQGTLVTVSS
VL: SYVLTQAPSVSVAPGQTARITCGGNAIGSKKVHWYQHKAGQAPVLVVYDDTDRPSGIPERFSGSNSWSTATLTINRVEAGDEADYYCQVWDFTIDHVVFGGGTKLTVL
Binder B2 has a Trimeric HA Binding: RLU [2] of 993 RLU and a Trimeric HA Binding: RLU [3] of 753 RLU.

B3: TCN-552 (5249_I23) (antibody, V domains shown)
VH: QVQVVQSGAEVKKPGSSVRVSCQASGGTFMNYAIIWVRRAPGQGLEWMGGIIPVFPTPNYAQMFQGRVTISTDESRSTSFLELTNLRYEDTAVYYCARRIYHGGNSGFDFWGQGTLVTVSS
VL: EIVLTQSPATLSLSPGERATLSCRASQSVGNYLAWYQQKPGQAPRLLIYDSSNRAPGIPARFSGSGSGTDFTLTISSLAPEDFAVYYCQQRSKWPPMYSFGHGTKLEIK
With B3 the Trimeric HA Binding: RLU [2] was 34600 RLU, the Trimeric HA Binding: RLU [3] was 19400 RLU and the Trimeric HA Binding: RLU [1] was 42200 RLU.

B4: TCN-557 (5081_A04) (antibody, V domains shown)
VH: QVQLVQSGAEVKKPGASVKVSCKASGHTFTGYYIHWVRQAPGQGLEWMGWINPDSGATSSAQNFQGRVTMTGDTSSSTAYMELSRLSFDDTAVYYCARVLFTSPFDFWGEGTLVTVSS
VL: QAVVTQEPSLAVSPGGTVTLTCGSSTGAVTRGHYPYWFQQKPGQAPRALIYDSAGNRHSWTPARFSGSLLGGKAALTLSGAQPEDEAEYYCLLSYSGVWVFGGGTKLTVL
Binder B4 has a Trimeric HA Binding: RLU [2] of 54900 RLU and a Trimeric HA Binding: RLU [3] of 23700 RLU.

B5: TCN-541 (5062_M11) (antibody, V domains shown)
VH: QVQLQESGPGLVKPSETLSLTCTVSGGSINSYYWNWIRQPPGKGLEWIGYIYHSGSTNYNPSLKSRVTISVDTSKNQFSLQLSSVTAADTAVYYCARLRTDYGDPDSVYYYGMDVWGQGTTVTVSS
VL: SYELTQPPSVSVSPGQTARITCSGDALPKQNAYWYQQKPGQAPVLLIYKDSERPSGIPERFSGSSSGTTVTLTISGVQAEDEADYYCQSADSSGTSWVFGGGTKLTVL
B5 gave a Trimeric HA Binding: RLU [3] of 728 RLU.

B6: TCN-542 (5079_A16) (antibody, V domains shown)
VH: QVQLQESGPGLVKPSQTLSLTCTVSGGSISSGNYYWNWVRQHPGKGLEWIGYIYYRGSTFYNPSLKSRVTISIDTSKNQFSLRLSSVTAADTAVYYCAKDTRSSLDNYQYGMDVWGQGTTVTVSS
VL: QTVVTQEPSLTVSPGGTVTLTCASSTGAVTSSYFPNWFQQKPGQAPRPLIYSTTIRHSWTPARFSGSLLGGKAALTLSGVQPEDEADYYCLLYSGGDPVAFGGGTKLTVL
In the case of B6, the Trimeric HA Binding: RLU [3] is reported as 1540 RLU.

B7: TCN-551 (5243_D01) (antibody, V domains shown)
VH: EVQLVQSGSEVKKPGESLKISCKGSGYSFSNYWIGWVRHMPGKGLEWMGIIYPGDSDTRYSPSFQGQVTMSADKSSSTVYLQWSSLKASDTAIYYCARRGGHSFGYGSGGDTHSEFDSWGQGTLVTVSS
VL: QSVLTQSPSVSAAPGQKVTISCSGSDSNIGDYFVCWYQHLPGKPPQLLIYENNKRPSGIPDRFSGSKSGTSATLGITGIQTGDEADYYCATWDGSLSAWVFGGGTKLTVL
With B7 the Trimeric HA Binding: RLU [3] was 907 RLU and the Trimeric HA Binding: RLU [1] was 45700 RLU.

B8: TCN-539 (5056_A08) (antibody, V domains shown)
VH: QVQLVESGGGVVQPGRSLRLSCAASEITFITYAMHWVRQAPGKGLEWVALISDDGSNKFYADSVKGRFTISRDNSKNTLYLQMNSLRAEDTAAYYCAREGVYFDSGTYRGYFDYWGQETLVTVSS
VL: EIVLTQSPATLSLSPGERATLSCRASQSVSSYLAWYQQKPGQAPRLLIYDASNRATGIPARFSGSGSGTDFTLTISSLEPEDFAVYYCQQRSHWPPITFGQGTRLEIK
B8 showed a Trimeric HA Binding: RLU [1] of 3960 RLU.
